In article PMC2120661:

Target: VLA-5 integrin (alpha5 beta1), affinity-isolated from mouse thymocyte lysate (mouse (endogenous in thymocytes)) (UniProt P09055)
Experiment: ELISA

percent inhibition of the binding of L1 to VLA-5 at 500 ug/ml peptide: 80%
Binder: CWRGDGRDLQERGDSDK [L1-RGD peptide]
